{
  "source": "patent US20240002497A1",
  "about": "(Merck Sharp & Dohme, published 2024)",
  "binders": {"B1": {"name": "65ASP (Fc fusion)", "chain": "EVQLVESGGGLVQPGGSLRLSCAASGSIFNINSMAWYRRAPGKQRELVASSTNGGSTNYADSVKGRFTISRDNAKRVYLQMNSLTPEDTAVYYCNALLQPSIYDISRTYWGQGTLVTVSS", "notes": "also called F0103275B05-5GS-Fc; not shown: 5GS linker; Fc moiety"}, "B2": {"name": "F010300468 (VHH)", "VHH": "B1 chain with N95R", "notes": "also called F0103275B05(N93R) + FLAG3-HIS6; F103275B05(N93R) + FLAG3-HIS6"}, "B3": {"name": "F010301162 (VHH)", "VHH": "EVQLVESGGGLVQPGGSLRLSCAASGMLFNRNTQGWYRQAPGKQRELVAFIFSGGWTNYNDSVKGRFTISRDNAKRTMYLQMNSLKPEDSAIYYCSLSRYQGQGTLVTVSS"}, "B4": {"name": "F010301191 (VHH)", "VHH": "B3 VHH with S96A, R99V"}, "B5": {"name": "F010301080 (VHH)", "VHH": "B3 VHH with R31A, S53W, W56Y, T57V, N58T, Q101L"}, "B6": {"name": "F010301090 (VHH)", "VHH": "B3 VHH with R31A, N58T"}, "B7": {"name": "F010301129 (VHH)", "VHH": "B3 VHH with R31A, S96A"}, "B8": {"name": "F010301558 (VHH)", "VHH": "EVQLVESGGGLVQAGGSLRLSCAASGRILRIGYMRWHRQGAGKQREFVARITGDSATGYADSVKGRFTISRDNAKNTVYLQMNNLNPEDTAVYYCEALVTASVRGGSIHSGTYWGRGTLVTVSS"}, "B9": {"name": "F010301559 (VHH)", "VHH": "B8 VHH with G53D, D54G"}, "B10": {"name": "F010301563 (VHH)", "VHH": "B8 VHH with G53D"}, "B11": {"name": "F010301566 (VHH)", "VHH": "B8 VHH with A23D, G53D, D54G"}, "B12": {"name": "F010302391 (VHH)", "VHH": "B8 VHH with L11V, A14P, H37Y, G40A, A41P, D54G, N84S, N86R, V92L, R116Q"}},
  "key": {"huNav1.7α + β1 [1]": {"molecular_target": "T1, huNav1.7α + β1 (human)", "T1 construct": "HEK293 cells; also called huNav1.7-beta1; huNav1.7-β1", "assay": "binding FACS, HEK"}, "huNav1.7α [2]": {"molecular_target": "T2, huNav1.7α (human, UniProt Q15858 1-1988)", "T2 construct": "HEK cells expressing the α subunit without β subunits; also called huNav1.7 (alpha-subunit); Human Nav1.7α", "assay": "binding FACS, HEK"}, "huNav1.7α + β1 [3]": {"molecular_target": "T1, huNav1.7α + β1", "assay": "cell-based or functional assay"}, "rhNav1.7α + β1-β2-β3": {"molecular_target": "T3, rhNav1.7α + β1-β2-β3 (rhesus monkey)", "T3 construct": "also called rhNav1.7-beta1-beta2-beta3; rhNav1.7-β1-β2-β3", "assay": "competition FACS vs EC40 of F103275B05(N93R), CHO FlpIn"}, "huNav1.7α + β1-β2-β3 [4]": {"molecular_target": "T4, huNav1.7α + β1-β2-β3 (human, UniProt Q15858 1-1988; A5A6L6 19-218; O60939 30-215; Q2KI11 23-215)", "T4 construct": "also called huNav1.7-beta1-beta2-beta3; huNav1.7-β1-β2-β3", "assay": "competition FACS vs EC25 of F103275B05(N93R), HEK FlpIn"}, "huNav1.7α + β1-β2-β3 [5]": {"molecular_target": "T4, huNav1.7α + β1-β2-β3", "assay": "competition FACS vs EC25 of F103275B05(N93R), CHO FlpIn"}, "huNav1.7α + β1 [6]": {"molecular_target": "T1, huNav1.7α + β1", "assay": "competition FACS vs EC25 of F103275B05(N93R), HEK"}, "huNav1.7α [7]": {"molecular_target": "T2, huNav1.7α", "assay": "competition FACS vs EC25 of F103275B05(N93R), HEK"}, "huNav1.7α + β1-β2-β3 [8]": {"molecular_target": "T4, huNav1.7α + β1-β2-β3", "assay": "cell-based or functional assay"}, "huNav1.7α [9]": {"molecular_target": "T2, huNav1.7α", "assay": "cell-based or functional assay"}, "huNav1.7α + β1 [10]": {"molecular_target": "T1, huNav1.7α + β1", "assay": "cell-based or functional assay", "remark": "listed apart in the source"}, "huNav1.7α + β1 [11]": {"molecular_target": "T1, huNav1.7α + β1", "assay": "cell-based or functional assay", "remark": "listed apart in the source"}},
  "note": "Residue numbers refer to the chain shown, from its start. In names and notes the source's numbering stands. Like-named read-outs stand apart in the source and are kept apart here.",
  "data": [
    {"binder": "B1", "values": [
      {"measurement": "EC50", "setting": "huNav1.7α + β1 [1]", "value": 45, "unit": "nM"},
      {"measurement": "EC50", "setting": "huNav1.7α [2]", "value": 21, "unit": "nM"},
      {"measurement": "Qpatch IC50 [M], HEK cells", "setting": "huNav1.7α + β1 [3]", "value": "1.2e-07", "unit": "M"}
    ]},
    {"binder": "B2", "values": [
      {"measurement": "IC50", "setting": "rhNav1.7α + β1-β2-β3", "value": 77, "unit": "nM"},
      {"measurement": "IC50", "setting": "huNav1.7α + β1-β2-β3 [4]", "value": 97, "unit": "nM"},
      {"measurement": "IC50", "setting": "huNav1.7α + β1-β2-β3 [5]", "value": 130, "unit": "nM"},
      {"measurement": "IC50", "setting": "huNav1.7α + β1 [6]", "value": 67, "unit": "nM"},
      {"measurement": "IC50", "setting": "huNav1.7α [7]", "value": 49, "unit": "nM"},
      {"measurement": "Qpatch IC50", "setting": "huNav1.7α + β1-β2-β3 [8]", "value": 99, "unit": "nM"},
      {"measurement": "Qpatch IC50", "setting": "huNav1.7α [9]", "value": 57, "unit": "nM"}
    ]},
    {"binder": "B3", "values": [
      {"measurement": "Qpatch IC50", "setting": "huNav1.7α + β1 [10]", "value": 32, "unit": "nM"}
    ]},
    {"binder": "B4", "values": [
      {"measurement": "Qpatch IC50", "setting": "huNav1.7α + β1 [10]", "value": 63, "unit": "nM"}
    ]},
    {"binder": "B5", "values": [
      {"measurement": "Qpatch IC50", "setting": "huNav1.7α + β1 [10]", "value": 14, "unit": "nM"}
    ]},
    {"binder": "B6", "values": [
      {"measurement": "Qpatch IC50", "setting": "huNav1.7α + β1 [10]", "value": 22, "unit": "nM"}
    ]},
    {"binder": "B7", "values": [
      {"measurement": "Qpatch IC50", "setting": "huNav1.7α + β1 [10]", "value": 126, "unit": "nM"}
    ]},
    {"binder": "B8", "values": [
      {"measurement": "Qpatch IC50", "setting": "huNav1.7α + β1 [11]", "value": 8, "unit": "nM"}
    ]},
    {"binder": "B9", "values": [
      {"measurement": "Qpatch IC50", "setting": "huNav1.7α + β1 [11]", "value": 12, "unit": "nM"}
    ]},
    {"binder": "B10", "values": [
      {"measurement": "Qpatch IC50", "setting": "huNav1.7α + β1 [11]", "value": 5, "unit": "nM"}
    ]},
    {"binder": "B11", "values": [
      {"measurement": "Qpatch IC50", "setting": "huNav1.7α + β1 [11]", "value": 18, "unit": "nM"}
    ]},
    {"binder": "B12", "values": [
      {"measurement": "Qpatch IC50", "setting": "huNav1.7α + β1 [11]", "value": 32, "unit": "nM"}
    ]}
  ]
}
